Key:
IL-13Rα1 (Homo sapiens) = IL-13Rα1 (Homo sapiens) (UniProt P78552); details: cited from earlier work
[1] = target: SNAPf-IL-13Rα1-TM (IL-13Rα1 truncated after the transmembrane domain); assay: single molecule co-localization and co-tracking (dual-colour TIRF microscopy); ^DY547IL-4Rα-TM and ^DY647IL-13Rα1-TM reconstituted into polymer-supported membranes (PSM); ligand from 10 pM up to 50 μM, 5 min equilibration; equilibrium model fitted to the dimerization curves
HaloTag-IL-13Rα1 = HaloTag-IL-13Rα1 (UniProt P78552); assay: particle image cross-correlation (PICCS) of single molecule localizations on live cells; HeLa cells co-expressing ^DY647IL-4Rα and ^TMRIL-13Rα1, without and with ligand; correlated fraction α; effective 2D constant by the law of mass action from α and the surface concentrations corrected for the degree of labelling
IL-4Rα (Homo sapiens) = IL-4Rα (Homo sapiens) (UniProt P24394); details: cited from earlier work
[2] = target: T1, IL-4Rα-EC/IL-4D binary complex on the SSM (UniProt P05112 25-153; P24394 26-232, H59Y | K84D, CoA-ATTO 488 on the ybbR-tag); assay: TIRFS-RIf (total internal reflection fluorescence spectroscopy with reflectance interference); SSM with IL-4Rα-EC and IL-13Rα1-EC; dissociation of ^AT488IL-4D while free IL-13Rα1-EC is blocked by injection of IL-13 (Supplementary Fig. 7); details: both partners purified
T1 construct: interleukin-4; IL-4Rα, ectodomain; Chains as m2 and m10; source: formed on the solid-supported membrane from m2 and m10; not shown: ybbR-tag, N-terminal, kept; His10, C-terminal, kept
T1 sequence (looked up) 1: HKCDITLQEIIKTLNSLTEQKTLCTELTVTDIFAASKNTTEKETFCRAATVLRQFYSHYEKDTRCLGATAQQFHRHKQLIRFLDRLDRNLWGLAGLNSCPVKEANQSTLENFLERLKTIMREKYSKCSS
T1 sequence (looked up) 2: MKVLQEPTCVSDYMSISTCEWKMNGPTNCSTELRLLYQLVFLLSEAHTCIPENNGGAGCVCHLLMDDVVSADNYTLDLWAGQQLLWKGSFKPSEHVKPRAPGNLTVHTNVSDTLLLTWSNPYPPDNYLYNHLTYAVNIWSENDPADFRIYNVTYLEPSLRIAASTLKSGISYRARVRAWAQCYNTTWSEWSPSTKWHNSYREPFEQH

In the case of IL-4 (from UniProt P05112), the Kd (IL-13Rα1 (Homo sapiens)) is listed as 2.5 µM.

Work on “IL-4/^DY547IL-4Rα-TM binary complex in the PSM (from UniProt P05112 25-153)” yielded a 2D equilibrium dissociation constant (molecules μm^−2) [1] of 1.6.

Molecule “IL-4/^DY647IL-4Rα binary complex in the plasma membrane of HeLa cells (from UniProt P05112 25-153; P24394 26-825)” has a correlated fraction α (PICCS) (HaloTag-IL-13Rα1) of 11% and an effective 2D equilibrium dissociation constant (molecules μm^−2) (HaloTag-IL-13Rα1) of 0.1.

In the case of “IL-13/IL-13Rα1-EC complex (from UniProt P35225)”, the Kd (IL-4Rα (Homo sapiens)) is given as 0.015 µM.

B1: IL-13Rα1-EC (ectodomain of IL-13Rα1 with C-terminal decahistidine tag) (domain or fragment, UniProt P78552 22-343, looked up)
chain: GGGGAAPTETQPPVTNLSVSVENLCTVIWTWNPPEGASSNCSLWYFSHFGDKQDKKIAPETRRSIEVPLNERICLQVGSQCSTNESEKPSILVEKCISPPEGDPESAVTELQCIWHNLSYMKCSWLPGRNTSPDTNYTLYYWHRSLEKIHQCENIFREGQYFGCSFDLTKVKDSSFEQHSVQIMVKDNAGKIKPSFNIVPLTSRVKPDPPHIKNLSFHNDDLYVQWENPQNFISRCLFYEVEVNNSQTETHNVFYVQEAKCENPEFERNVENTSCFMVPGVLPDTLNTVRIRVKTNKLCYEDDKLWSNWSQEMSIGKKRNST
modifications: CoA-Alexa Fluor 568 on the ybbR-tag in the FRET experiments (^AF568IL-13Rα1-EC); else unlabelled
B1: binds [2].
